B1: Transcription factor MYB75 (Arabidopsis thaliana (Mouse-ear cress)), Q9FE25 (parent)
chain: MEGSSKGLRKGAWTTEEDSLLRQCINKYGEGKWHQVPVRAGLNRCRKSCRLRWLNYLKPSIKRGKLSSDEVDLLLRLHRLLGNRWSLIAGRLPGRTANDVKNYWNTHLSKKHEPCCKIKMKKRDITPIPTTPALKNNVYKPRPRSFTVNNDCNHLNAPPKVDVNPPCLGLNINNVCDNSIIYNKDKKKDQLVNNLIDGDNMWLEKFLEESQEVDILVPEATTTEKGDTLAFDVDQLWSLFDGETVKFD
partner: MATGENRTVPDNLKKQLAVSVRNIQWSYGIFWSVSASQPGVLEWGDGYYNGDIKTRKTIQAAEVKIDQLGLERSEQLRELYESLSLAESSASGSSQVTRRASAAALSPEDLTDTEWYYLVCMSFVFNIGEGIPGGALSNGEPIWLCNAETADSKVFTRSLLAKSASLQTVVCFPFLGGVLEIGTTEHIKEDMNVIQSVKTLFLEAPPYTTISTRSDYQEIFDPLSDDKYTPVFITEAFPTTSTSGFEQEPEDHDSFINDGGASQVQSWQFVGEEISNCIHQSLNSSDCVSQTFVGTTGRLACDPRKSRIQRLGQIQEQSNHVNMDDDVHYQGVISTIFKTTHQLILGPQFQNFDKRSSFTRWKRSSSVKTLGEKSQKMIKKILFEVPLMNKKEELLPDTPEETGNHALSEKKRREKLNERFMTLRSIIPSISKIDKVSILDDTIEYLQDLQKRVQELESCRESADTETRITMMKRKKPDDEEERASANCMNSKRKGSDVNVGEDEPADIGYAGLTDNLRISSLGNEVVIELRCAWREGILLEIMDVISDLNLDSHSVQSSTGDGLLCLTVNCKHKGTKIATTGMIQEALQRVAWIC

Variants of: B1
Details: with egl1_arath BHLH2, Q9CAD0

Row | Variant | effect of a mutation on the interaction
1 | R76K | decreasing interaction
2 | R76E | decreasing interaction
3 | L73I | decreasing interaction

Further lines, results first:

Row | effect of a mutation on the interaction | Variant
4 | decreasing interaction | R91A
5 | decreasing interaction | R91D
6 | decreasing interaction | R79S
7 | decreasing interaction | L80A

— IntAct's records for PubMed 15361138
